Residue numbers refer to the chain shown, from its start.
What was measured:
AnkB_MBD Asn595Ala = target: T1, AnkB_MBD Asn595Ala (human, UniProt Q01484-2 28-827, Asn595Ala); assay: ITC; VP-ITC MicroCal, 25 °C; proteins in 50 mM Tris-HCl pH 7.8, 1 mM DTT, 1 mM EDTA with 100 mM or 500 mM NaCl as required; who was titrated is not told; conditions: both partners purified
T1 construct: ankyrin-B (AnkB), human 220 kDa isoform, MBD 28-827 with N595A in a finger loop; numbers count on: human 220 kDa AnkB NM_020977.3; source: E. coli BL21 (DE3), purified (Ni2+-NTA, size exclusion)
T1 sequence (looked up): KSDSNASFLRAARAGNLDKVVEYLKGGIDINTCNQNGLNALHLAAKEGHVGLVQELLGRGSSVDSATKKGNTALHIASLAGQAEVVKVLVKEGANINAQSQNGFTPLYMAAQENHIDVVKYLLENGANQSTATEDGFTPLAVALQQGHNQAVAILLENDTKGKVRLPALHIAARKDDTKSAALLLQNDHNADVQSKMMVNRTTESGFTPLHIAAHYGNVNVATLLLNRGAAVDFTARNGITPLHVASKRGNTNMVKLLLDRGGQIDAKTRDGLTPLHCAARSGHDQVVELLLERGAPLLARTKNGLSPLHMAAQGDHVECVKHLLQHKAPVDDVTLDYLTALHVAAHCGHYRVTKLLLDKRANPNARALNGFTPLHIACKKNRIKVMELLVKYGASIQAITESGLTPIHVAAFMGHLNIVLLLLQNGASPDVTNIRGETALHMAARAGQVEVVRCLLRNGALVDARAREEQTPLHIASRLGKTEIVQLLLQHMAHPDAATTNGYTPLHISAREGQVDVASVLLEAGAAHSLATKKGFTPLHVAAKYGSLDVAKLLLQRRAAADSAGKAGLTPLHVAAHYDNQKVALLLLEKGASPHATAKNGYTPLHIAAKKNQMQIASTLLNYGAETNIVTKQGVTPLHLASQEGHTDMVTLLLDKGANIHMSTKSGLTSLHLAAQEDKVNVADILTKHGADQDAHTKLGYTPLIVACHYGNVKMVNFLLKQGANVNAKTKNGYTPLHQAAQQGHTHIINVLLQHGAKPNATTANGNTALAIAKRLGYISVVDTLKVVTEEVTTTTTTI

[1] = target: T2, AnkB_MBD (AnkB ANK repeats only, aa 28–827) (human, UniProt Q01484-2 28-827); assay: as above; conditions: both partners purified
T2 construct: ankyrin-B (AnkB), human 220 kDa isoform, residues 28-827: the 24 ANK repeats (MBD), no linker; numbers count on: human 220 kDa AnkB NM_020977.3; Poor quality in 100 mM NaCl buffer; also called AnkB 28–827; source: E. coli BL21 (DE3), purified (Ni2+-NTA, size exclusion)
T2 sequence (looked up): T1 sequence (looked up) with A568N

binding result (AnkB_MBD Asn595Ala): binds
binding result [1]: binds
B1: AnkB_AI-c (aa 828–852) (domain or fragment, human, UniProt Q01484-2 828-852, looked up)
chain: TEKHKLNVPETMTEVLDVSDEEGDD
notes: numbers count on: human 220 kDa AnkB NM_020977.3; source: E. coli BL21 (DE3), purified (Ni2+-NTA, size exclusion)

— PMC5779224, “Autoinhibition of ankyrin-B/G membrane target bindings by intrinsically disordered segments from the tail regions” (eLife, 2017)
